Laboratory results published in article doi:10.1101/2021.03.23.436624 (bioRxiv, 2021).

B1: Neisseria gonorrhoeae LptD (NgLptD) (natural protein, UniProt Q5F651 24-801, looked up)
chain: ADTVAAEEADGRVAEGGAQGASESAQASDLTLGSTCLFCSNESGSPERTEAAVQGSGEASVPEDYTRIVADRMEGQSKVKVRAEGSVIIERDGAVLNTDWADYDQSGDTVTVGDRFALQQDGTLIRGETLTYNLDQQTGEAHNVRMETEQGGRRLQSVSRTAEMLGEGRYKLTETQFNTCSAGDAGWYVKAASVEADRGKGIGVAKHAAFVFGGVPLFYTPWADFPLDGNRKSGLLVPSVSAGSDGVSLSVPYYFNLAPNFDATFAPGIIGERGATFDGQIRYLRPDYSGQTDLTWLPHDKKSGRNNRYQAKWQHRHDISDTLQAGVDFNQVSDSGYYRDFYGGEEIAGNVNLNRRVWLDYGGRAAGGSLNAGLSVQKYQTLANQSGYKDEPYAIMPRLSADWHKNAGRAQIGVSAQFTRFSHDGRQDGSRLVVYPGIKWDFSNSWGYVRPKLGLHATYYSLDSFGGKASRSVGRVLPVVNIDGGTTFERNTRLFGGGVVQTIEPRLFYNYIPAKSQNDLPNFDSSESSFGYGQLFRENLYYGNDRINAANSLSTAVQSRILDGATGEERFRAGIGQKFYFKDDAVMLDGSVGKNPRSRSDWVAFASGGIGGRFTLDSSIHYNQNDKRAEHYAVGAGYRPAPGKVLNARYKYGRNEKIYLQADGSYFYDKLSQLDLSAQWPLTRNLSAVVRYNYGFEAKKPIEMLAGAEYKSSCGCWGAGVYAQRYVTGENTYKNAVFFSLQLKDLSSVGRNPAGRMDVAVPGYIPAHSLSAGRNKRP
B2: Sybody 21 (Sb21) (VHH)
VHH: QVQLVESGGGLVQAGGSLRLSCAASGFPVKYEHMYWYRQAPGKEREWVAAINSAGNETHYADSVKGRFTISRDNAKNTVYLQMNSLKPEDTAVYYCNVKDIGWWAAYDYWGQGTQVTV

Assays:
[1] = molecular target: the molecule itself; experiment: cryo-EM structure
[2] = molecular target: N. gonorrhoeae LptD (1-801)-3C-His10 and LptE (1-159)-AVI complex, biotinylated (Neisseria gonorrhoeae) (UniProt Q5F651); experiment: grating coupled interferometry

Row | Binder | binding result [1] | Kd [2] [nM]
1 | B1 | binds | –
2 | B2 | – | 10
